Test results reported in the DeepSol protein solubility set.

Experiment: soluble on expression in E. coli; label from the status in PepcDB or PDB records

Sequence	soluble on expression in E. coli
MELWLVRHGETLWNREGRLLGWTDLPLTAEGEAQARRLKGALPSLPAFSSDLLRARRTAELAGFSPRLYPELREIHFGALEGALWETMDPRYKEALLRFQGFHPPGGESLSAFQERVFRFLEGLKAPAVLFTHGGVVRAVLRALGEDGLVPPGSAVAVDWPRRVLVRLALDGEEATG	soluble
MEMRGKITKINENGLGVLGNILVPFAYPGDEVEVTETRERFGKIIARDFKLMTPSPLRIPGKCSHFGKCGGCLWQGLRYREQLKLKEEIFKRITGIEAEIKGSPRIWYFRNISNFIITVNGIGFKEFGMPKTVVNIRECPIFSERTPKYLKALKDFLRESNLKPWNWREGDVHYLQVREGKFTGEVMVNIIAHVPLNYREALMEAFNFADSIYWSLKADKKDDPRGFPTLVLGNEVIREKVEGITYLIHPSVFFQTNSYALPLLLKSVEKFCEGSKVLDLYSGIGTLSLYLAKRGFEVTGVEVNGTSVEMAKRSAEINSINATFIQGKAEDAELEGYETLIVDPPRKGLKEFSRRIVKKGPNTLIYVSCNPLRFILDYRNYLSEAYKVDDALLIDMFPHTPHIEAVIKLVRR	soluble
MENAPLLFQLPDDDTLYQALLARDPAYEGFAFVGVKSTGVFCRLTCAARKPKRENTVFFGSIKGCVEAGFRACLRCRPLERAGVQEPWVQTLLEQLGRDPERRWYEDDLVAQGLDPSTVRRAFKRYFGVTFLEMARLRRMGQGMQQLASGEPVIEAQISAGFDSDSGFRHAFSRLAGQPPSNLRGRELLKVDWLQTPIGVMLAVADAQVLHLLEFFDRPALANELQNLQKSSGSSIGFGRFAPIDQIEAELQRYFAGEAVHFATPLAMSASPFTRTVWQALRAIPLGTTCSYAEVARQVGSPSAVRAVARANAANQISIVIACHRVIGADGSLTGYGGGLEHHHHHH	not soluble
MENNENHEKLNGVLRKFLGDAFTLDGKEGGLNMEKLREAIKKEKPIMNILLMGATGVGKSSLINALFGKEVAKAGVGKPITQHLEKYVDEEKGLILWDTKGIEDKDYENTLESIKKEMEDSFKTLDEKEAIDVAYLCVKETSGRVQERERESYLEHHHHHH	not soluble
MENQEVVLSIDAIQEPEQIKFNMSLKNQSERAIEFQFSTGQKFELVVYDSEHKERYRYSKEKMFTQAFQNLTLESGETYDFSDVWKEVPEPGTYEVKVTFKGRAENLKQVQAVQQFEVKMAGDPLEHHHHHH	soluble
MENSDVINFSCLEKELHSALQADRKYQRENDAKFRALNQKVASYEEFRDIVLASHLKPLDRNDISGSPRKQPWNPVACRTNYVCASSEQVQPQLSEVQPRSASEFIRDWRRFAGCSFEKYSLLVSLGGEALQKIFSTEIGLGLLGEFLLILSQCLKSGDEDRVTGVLDGLSKTGRFSINLSLLSQAEQEACEELFNKLKVAAGECHPYKDNSNTSVVCEAGLTHMEDNKTDITTTLKELAGKYGTEK	not soluble
MENSNENDIVLTWWDWGHFVTYYARRSPVAQGSPNSGVAGYYLGLVDNGWAQSLGVDYVIVSLYDILKFEAIVDTAKLSRKWENISRADYGVDFLKLTESTGSILRFDSQYSTLIVKEGNIRVILSGKVVYPREAIIESNGRIKNLKYPARSGVYVYVNLDYGYAILEHHHHHH	not soluble
MENSRLMQSMPRTPKFEEEKKTDKDKEKEEKERNGKKTELARAQNKKAQEKDMPRFKQGENQIDTATETYELTSELGQGSFGAVFGVTRKSDKRHFAMKCESVNMKRAILPHEAGVLLALNHLKSPHFLEMVDHGIVNNRFLFVVLKLVGMNLWDMRAHLPDKKYTLTTTLRIAEQTLAGLRDLHRVGFLHRDIKPPNFAIGREEDDTYHTVFLLDFGLCRKIAMKGKDLRTPRKECAFRGTTRYAALAAHDNKEQSRKDDIESWWYMIAEMIVFDIPWKQFRGTDRDNVRGMKWRLRADETYFKFLFRKCCYEQMSAILLYLDQLSYSSIPDYDFVYHHLQAAAIVNNCSAKSPPDWDPKSQHYKGPIYKEREPYIVKSLE	not soluble
MEPAGPCGFCPAGEVQPARYTCPRCNAPYCSLRCYRTHGTCAENFY	soluble
MEPGVDGARKQIAEVVAERIERLILDGVLKAGQALPSERRLTEKLGVSRTALREGLRVLWARQIIHTAQGKGSYVAQISQVDAGPLVHLFNSQPRTLYDLLEVRALLESESARLAAIRGTDADFIMIRRRYDEMLAAHGRETDSATHAHLDHAFHLAICQASHNAVLVHTLQSLTDLLLGSVFACVNNLYHREPHKRHIDQQHERLFLAVLAREPEQAHQAARAHVDSVRQSLAEIEQEEQRLVRATLRLEGWV	not soluble
MEPTENLDVCLATLRDTDRDRYLACLLSPADKRNALAALYAFNAEIARIRDSVREALPGEVRMQWWRDLVDGNPHGDSQSHPVAAALLTTIEHYRLPRPVLGNMIEARIFDLYDDLFEDRNALEGYAGETASALIQLASLVLSAEDAAHSAEAAGHAGVAQAMAGMLLLMPLHRRRGQVYIPADMLAAAGLDRETFLAGQDRQRIGIAVEIFAAHALDHIEKARRATISKNLFAAYLPVALSGPVIAAARKAGAGVFDGDLQLSQLRRQWLLAKASFLKRF	not soluble
MEPYIKALITDSYEQNKNFFRCRFMKNRRGDECNFVGTFSDTLTHFSIHTKVYLFECEGCTKQVVDFMDLVEHRSPSTGAICRGTVENMRQLRLERMKTIDAHRCRNVFIVGATRSEFEDYLRYKNTHGKQQSFGTPLYNDNEEEQTRHQPQQQRSSTPLAPTTPTPPPPTQAPTNHRELLLDFPLPVDFSRPPPVIPPEYFFNAPSVSQQHHQRSQYQHYAPQPQGNRTPGYVARPITPHGNPKPQNYQIGGGWNPYANPPSAKDAPATVRDNRSPSRPRGDFRRDRSQSRGAETHCQQSYQPPADPLQDRSRNGRSPPMGTHSHYGQNAKPAQNGNTSHYELRSRSRGRATVPMNANFRAGHQTGSSSRLESRSRATASVGARAPSRAPAPSSTSRETRSTRRSPSKGPSAPAYTLPFGGSTPNHEPMDLELEDPVPPPRPDRPRASTSLNTSVSQIKRNEVQTGVYNIRPQRVQDTVQKARTAVGYAGTRNRSPLREADAEEIAATEALKNRFAVKSRGTAKAKANSNRGAALLESIEPTNRKIETAEEREKKQNDLYLEKMRKIREKQRLEQEKIDDVVVDSGNLPTIAPNAAGTPPPQSVAAMLEPKEESEEDEPSTSASVPFQRRMNSPQTHATSYARRSDGKRHPSKSRSSRDDRANRRDRDRDSDGRCGDDRRRDHRSHPYERH	not soluble
MEQIERIAQLYPVIMRVMGRIRSLVHDGMDLTYNQYKMLLTIYDKGSCPLNLLARELGIAMSSASEMVERLVNLGIVYRAVDEDNRRQVIIYTTDRGEELIRELRHGIIENYRQLFARLPEGDQERLATAFETIADVLGKLE	not soluble
MERDERPPSGGGGGGGSAGFLEPPAALPPPPRNGFCQDELAELDPGTNGETDSLTLGQGHIPVSVPDDRAEQRTCLICGDRATGLHYGIISCEGCKGFFKRSICNKRVYRCSRDKNCVMSRKQRNRCQYCRLLKCLQMGMNRKAIREDGMPGGRNKSIGPVQISEEEIERIMSGQEFEEEANHWSNHGDSDHSSPGNRASESNQPSPGSTLSSSRSVELNGFMAFRDQYMGMSVPPHYQYIPHLFSYSGHSPLLPPQARSLDPQSYSLIHQLMSAEDLEPLGTPMLIEDGYAVTQAELFALLCRLADELLFRQIAWIKKLPFFCELSIKDYTCLLSSTWQELILLSSLTVYSKQIFGELADVTAKYSPSDEELHRFSDEGMEVIERLIYLYHKFHQLKVSNEEYACMKAINFLNQDIRGLTSASQLEQLNKRYWYICQDFTEYKYTHQPNRFPDLMMCLPEIRYIAGKMVNVPLEQLPLLFKVVLHSCKTSTVKE	not soluble
MERHGSELQGEVVFTTTSTANNNVKRAVEYFEDDNQDDALTSTSSGNSTQKESSPFTDFDDVPPPPVAPETPAPAQNRRESASPERQFLDESHLGGIGSPLSQSTRLDETFIEEYSIELDTSGNSRNNISSAASPGPKSPFDDDFTDTAAPVAPPPAPTKAAEEYRRQPHQNPFDEEEEEESQFGGGTLSGRDPFDEDSGNSNENQLREKKLHKKEQLAHRLSSSSEEIVEASIHEDEPIVMAQIPEEKPKPKAIPAFDNAYDADFDNSPPLHHYSAVHLETGLSPLEEAQRALRANRARHKPSNVSLAEEAKLAARQRYSNASDIRREEEEEVVEEDPAVVVPVLRKDLEVEEAPKSVRPPRYRKSREIEEPVVVDRFVEEEVDEKEDIDAIFEKYRKVRKDIFEKNGVENLKNLNFFRTSVSADPKSHTPILMADEYKEPQKQVPAPVVVAQESPILKRRNSLVPSRISGRQSTRRSVTSVRSMRGKRKTRAIPEFFDLTRHQNIRLRAPATKKKRISLHRVEDTEAVVELLNGQKVEVACRSDVISRDVFSLIVQNMNINEHVFFGLSFLRDGEHYFIEDHQRLEKFAPSGWKSVARVGVKVPYVLHLRFKFYPQILDFIKTDVTMNELYLQCRRDVLEERIQPKRDAAFELAALALQAEFGNRPPPVITDYFDIQHYLPKKYSSFEDQSRLKNILAELHGHYAGTRISEAKHKYIQICQRHPDFGAHVHRVFRTKPTSAHGASPFDPDTGSSLWIGIMPRGISIYEQQGGAREVIAEHVWPQTQTLQFDKKRFVIVAVGAHDEQIESTFYTDHHSKSSYFVRFAASQHRWMMKMRQWKSTLRHENTIQAMPDVIVEGQTIPPAPIRQGLEESPPSTPLLASADQIFAKMSVSQEKPAANRPAELPPPAPSSKFAAQYDTVDEGIVCDSQAENFERVDSTDNGNVTPRGMQFDILLVKDPANGLGLTLVDGNLNGVPGVYVKLVADNGAGMKAIKPKWDILTPCDSTQIFASQNQIFPSVSAEMLASAGRKKSFTSSSGDLLNAPNRTNGQSRTPPAPRKAANRRQRAVSDFGAIGDALPTLDGDNLINIKAISGLHLDESDEEKGEYRLPTTSMYAFDRDDDLQASIKESKKPAPEPKSGELRKYRYARRSNLEIAEEIEEEAVESSDDDGQIDEGKRVIDVELDRNENGSLGVQIASLSGRVCIKQLTSEPAISHPDIRVGDVLLYVNGIAVEGKVHQEVVAMLRGGGDRVVLGVQRPPPAYSDQHHASSTSASAPLISVMLLKKPMATLGLSLAKRTMSDGIFIRNIAQDSAASSEGTLRVGDRLVSLDGEPVDGFTPATILEKLKLVQGPVQITVTREQTA	not soluble
MERIETIPTDKEHLSQDEVIRLASTPCSAPALKRAFLFSCLTALRKSDIKKLTWEEIQPYGSDGVMYVTTRMQKTKDIVHNPISEEALELIGYSPDKRGKVFPDFKDSMTQAPLKNWLKDAGITKHISYHCSRHSFACLQLDAGTSIAVVQRYLGHKNVATTEVYAKISDAQKRASVGLEHHHHHH	soluble
MERKINRREKEKEYEGKHNSLEDTDQGKNCKSTLMTLNVGGYLYITQKQTLTKYPDTFLEGIVNGKILCPFDADGHYFIDRDGLLFRHVLNFLRNGELLLPEGFRENQLLAQEAEFFQLKGLAEEVKSRWEKEQLTPRETTFLEITDNHDRSQGLRIFCNAPDFISKIKSRIVLVSKSRLDGFPEEFSISSNIIRFKYFIKSENGTRLVLKEDNTFVCTLETLKFEAIMMALKCGFRLLTSLDCSKGSIVHSDALHFIK	soluble
MERNDIINFKALEKELQAALTADEKYKRENAAKLRAVEQRVASYEEFRGIVLASHLKPLERKDKMGGKRTVPWNCHTIQGRTFQDVATEISPEKAPLQPETSADFYRDWRRHLPSGPERYQALLQLGGPRLGCLFQTDVGFGLLGELLVALADHVGPADRAAVLGILCSLASTGRFTLNLSLLSRAERESCKGLFQKLQAMGNPRSVKEGLSWEEQGLEEQSGGLQEEERLLQELLELYQVD	soluble
